experiment: soluble on expression in E. coli; label from the status in PepcDB or PDB records

Row | Sequence | soluble on expression in E. coli
1 | MGSDKIHHHHHHMSQNVYQFIDLQRVDPPKKPLKIRKIEFVEIYEPFSEGQAKAQADRCLSCGNPYCEWKCPVHNYIPNWLKLANEGRIFEAAELSHQTNTLPEVCGRVCPQDRLCEGSCTLNDEFGAVTIGNIERYINDKAFEMGWRPDLSDVKPTGKTVAIIGAGPAGLACADVLTRNGVKAVVFDRHPEIGGLLTFGIPAFKLEKEVMTRRREIFTGMGIEFKLNTEVGRDVQLDDLLKEYDAVFLGVGTYQSMRGGLDNEDAPGVYDALPFLIANTKQIMGFGETADEPYVSMEGKRVVVLGGGDTAMDCVRTSVRQNAAHVICAYRRDEENMPGSKREVKNAREEGVEFQFNVQPLGVEVNANGKVCGVKMARTEMGQPDAKGRRRAEIVPGSEHVVPADAVVMAFGFRPHSMEWLAKHSVEMDSQGRIIAPEGSENAFQTSNPKIFAGGDIVRGSDLVVTAIAEGRKAADGILNYLEV | not soluble
2 | MMIMNNFDEKKLIQEFSKIQSELSPRIKLENNFQIEEIQFIAGVDLAYWNVNKTKYGTCCIVIIDYGTKEVVEKVYSYGEIPIPYIPGFLAFRELPLIIEAVKKLTKQPDIYFFDGNGYLHYRHMGIATHASFLLNKPTIGVAKSYLKIRDVDFIMPENLKGSYTDIVINNEVYGRTLRTTKNVKPIFVSCGNWIDLDTSTEIVMNCINNESRLPIPVRLADLETHKMRKKLMEGLEHHHHHH | not soluble
3 | MNITKIDWQKVNGLLPVIIQNISTREVLMLGYMNEEALTKTIKERKVTFFSRTKQRLWTKGEISGNFLNVEEMSLDCDNDTLLILVDPIGATCHTGEYSCFHQFTSPQSENKKQQFANWAWFIKLEQHLKEKKNADPSNSYTATLHAKGTKKIAQKVGEEGVETALAAVAQDKAEVISEATDLVYHLTVLLHNQDLQWYEIIAKLQERHQGIGLHPEGGNK | soluble
4 | MGSDKIHHHHHHMNYIYSFINGDFMRFFNREKEITEILSILEGNPDLVYFVYGPLNSGKTALISEIINNRIDKNKYVVFYINLRGIFISKYKDFIEVLFEEYEEDRKPVEIIKSLIKDVPSLCGIPTPKNTLEEILKKKTTKNVFKYITNVLMDIKKEGKQPIIIIDELQKIGDMKINGFLIYELFNYFVDLTKELHLCHVFCLSSDSLFIEQVYSEAMLKDRVDYILVDDFDKETALKFMDFLAEEILNKKLSDDEKELIYSYVGGKPILIIKVIKKLKIKGLKETLDEMLRDEMQKLKYFLEDIKEKDEESYNKIADALEIFKDSYEIEDIKIPKNIREFLVKKNILFLNPQKGTLKPQSYLVWNAIKRLL | not soluble
5 | MSLKNNVYILADSVVTPLGQSTEENMEKLYSLQSAIRTYTHPQIGTFYASKFEDGKSFQIKKDAAGKTKIERLFISCIEKALERTEIDVENANVLFVFASTKGNVEYLTDETFDKNRLRIGITAQDVTAYFNNPNTPIVVSNACISGLQAIQYGYEVLQDNRYTHVVVTGADCFSEFILSGFHSFQALSPFPCKPFDKARAGLSLGEGCGTLILSNKKTDAAAIEILSVVSSNDANHLSGPSRTGEGLSSAILGAINEAGITAEQIDVISAHGTATLYNDEMESMAFKTANLEAKAVYSVKGNIGHTLGAAGIIETIYLAQSLQNNMLVPSIGFTETGTSVELNVTRQSTLKTMQIGLKTASGFGGGNTALLLKKEGHHHHHH | not soluble
6 | MTNLTNYHSHCLYCDGRANMEDFIRFAISEGFSSYGISSHAPLPFSTAWTMEWDRMDDYLSEFARLKEKYADKIELAIGLEIDYLNEESHPAIPRFQELPLDYRIGSVHMLYSPQGKVVDIDTPADIFRQLIDAHFEGDLDYVVHLYYKNLLRMVELGGFDILGHADKMHYNASCYRPGLLDEPWYDALVRDYFAEIARHGYIVEINTKSYHDLGTFYPNERYFPLLKELGIRVQVNSDAHYPERINNSRAEALAALKKVGFDTVVEWHGGQWKDMPLLQ | not soluble
7 | MSLIEERLKHYLEKQIPARDQYIEQMEREAHEQQVPIMDLLGMESLLHLLKMAAPARILEIGTAIGYSAIRMAQALPEATIVSIERDERRYEEAHKHVKALGLESRIELLFGDALQLGEKLELYPLFDVLFIDAAKGQYRRFFDMYSPMVRPGGLILSDNVLFRGLVAETDIEHKRHKQLATKIDTYNQWLLEHPQYDTRIFPVGDGIAISIKRETKGDTDDEKAEGHHHHHH | soluble
